For 1 molecule, Kd results are on record in publication PMC6764986.

This assay has as its target ALFA-tagged target immobilized for SPR (TST-NEDD8-ALFA or GFP-ALFA). Nature of the assay: SPR; ALFA-tagged ligand (TST-NEDD8-ALFA or GFP-ALFA) coupled by EDC-NHS to HC1000m chip; NbALFA as analyte; 20 °C, 40 µL/min, PBS with 0.002% Tween-20 pH 7.4; dissociation followed for > 7 h. (In general: Surface plasmon resonance follows binding to a sensor surface in real time, without labels.)

One may read the Kd as the free concentration of one partner at which half of the binding sites on the other are occupied at equilibrium, for simple one-to-one binding. Low readings indicate higher affinity, high ones lower affinity.

B1: NbALFA (non-tagged) (VHH)
VHH: EVQLQESGGGLVQPGGSLRLSCTASGVTISALNAMAMGWYRQAPGERRVMVAAVSERGNAMYRESVQGRFTVTRDFTNKMVSLQMDNLKPEDTAVYYCHVLEDRVDSFHDYWGQGTQVTVSS
With B1, the Kd was 0.026 nM.
